The source of these data is the RNAGym collection of RNA variant scans (doi:10.1021/acssynbio.7b00057).

B1: Pistol ribozyme (parent)
chain: GGGUCGUUGUUCCAUAAUCGCGUGGAUAUGGCACGCAAGUUUCUACCGGGCACCGUAAAUGUCCGACUGGAGCCGUUCGGGCGGCUAUAAACAGACCUCAGGCCCGAAGCGUGGCGGCACCUGCCGCCGGUGGUAAAAAAGAUCGGAAGAGCACACGUCU

The variants in the series derive from B1. As to the kind of experiment: aptazyme ON/OFF ratio, guanine; higher = stronger switching; co-transcriptional cleavage with and without guanine.
For U7G U8G G9U U10G U11A C12G C13A, the “aptazyme ON/OFF ratio” value is 1.08.
For U7C U8G U10G U11G C12A C13G the value was 1.19.
With U8C G9C U10A U11G C12U C13G the figure was 1.15.
For U7A C13A, the “aptazyme ON/OFF ratio” value turned out to be 1.47.
For U8G G9A U10A C12U the value was 1.27.
With U8A G9C U10A U11C C12A C13G the figure was 1.12.
With U7A U8G G9A C12G C13G the figure was 1.81; with U7C G9C U10G U11C C12U, 1.11; with U7C U8C G9U U10A U11C C12G, 1.36.
For the variant U7A U8C G9A U10A C12G C13G, the “aptazyme ON/OFF ratio” value came out at 1.25.
For U8G G9A U10A U11C C12A C13G the value was 1.12; for U7C U8G U10G C13G, 1.29.
For U7A G9A U10A U11A C12A C13U the value was 1.32; for U7C U8C G9A U10G U11C C12A, 1.54; for U8G G9A U11A C12U C13G, 1.18.
For U7G U8A G9C U11C C12G C13G the value was 1.03; for U7G U8A G9U U10A U11G C12G, 1.08; for U7A U8C G9U U10C U11A C13U, 1.12.
With U7C U8C G9C U10A U11G C12A C13G, the “aptazyme ON/OFF ratio” value came to 1.12.
For U7G U8G U10A U11G C13A the value was 1.18; for U7A U10C U11G C13A, 1.24.
For U7G U8G G9U U10A C12U C13A the value was 1.11.
In the case of U7G U8A G9U U10A U11A C13U, the “aptazyme ON/OFF ratio” value was 1.07.
For U7C U8A U11G C12G the value was 1.19.
For U8G G9C C13A, the “aptazyme ON/OFF ratio” value amounted to 1.04.
With U8C G9A U10G U11A C13U the figure was 1.02; with U8A G9C C12G, 1.22.
With U7C U8G G9C U10G U11A C12U the figure was 1.24; with U7A U8A G9A U10A C12G C13A, 1.24; with U7G G9U U10A U11G C12A C13A, 1.11.
For U8C G9U U11A C12U C13G the value was 1.12; for U7G G9A U10C U11G C12G C13A, 1.09; for U7A G9U U10G U11G C12G C13U, 1.45.
Turning to G9C U10C C12U C13U, the “aptazyme ON/OFF ratio” value was found to be 1.07.
With U7A U8G G9U U10G U11G C13G the figure was 1.19.
With U7C G9A U10A U11G C13U, the “aptazyme ON/OFF ratio” value is 1.25.
With U8G C12G C13G the figure was 1.15; with U7G U8A G9A U10A U11G C12A C13G, 1.06.
U7G U8A G9A U10A U11G C12A C13U: the “aptazyme ON/OFF ratio” value came out at 1.07.
With U7G U8A G9C U10G U11C C12G the figure was 1.04; with U8A U10A U11A, 1.14; with U7G U8A G9U U10C C12U C13U, 1.03.
With U7C U8G G9A U10C U11A the figure was 1.24; with U7G U11A C12G C13U, 1.12.
With U7A U8C G9C U10G U11A C12U the figure was 1.04.
As to U7C U8A U10C U11A C12G C13A, the “aptazyme ON/OFF ratio” value is 1.14.
For G9A U10C U11G C12A C13U the value was 1.21.
With U7A U8C G9C U10C U11C C13G the figure was 1.05; with U7A U8A G9A U10C U11G C12U, 1.11.
For U7C U8C G9U U10A U11G C12U the value was 1.11; for U7C U10A U11A C12U C13G, 1.16.
For U8A G9A U10A U11A C13G, the “aptazyme ON/OFF ratio” value is 1.06.
In the case of U7C G9A U10G U11C C12G C13U, the “aptazyme ON/OFF ratio” value amounted to 1.11.
Regarding U7G U8C G9A U10C U11C, the “aptazyme ON/OFF ratio” value is 1.16.
For U7C U8A G9C U10A U11A C12U C13G the value was 1.1.
For U7A G9U U10C U11C C12U C13A the value was 1.06; for U7A U8G G9C U11A C12A C13A, 1.25.
As to U8G U11A C12A C13A, the “aptazyme ON/OFF ratio” value was 1.18.
With U7G U8A G9C U11A C12A, the “aptazyme ON/OFF ratio” value was 1.03.
For U7G U8G G9A U10A U11C C12A the value was 1.21; for U7C U8C G9C U10A U11C C12A, 1.21.
With U7A G9A U10C U11G C12G C13G the figure was 1.27; with U7A U8G G9C U11G C13U, 1.4.
Take U7C U8G U10C C12G C13G: the “aptazyme ON/OFF ratio” value stood at 1.13.
With U7C G9A U10G C12U C13A the figure was 1.2; with U7A U8A G9C U10C U11C C13U, 1.04; with U8C G9A U11A C13U, 1.22.
As for U7A U8C G9U U10G C12G, the “aptazyme ON/OFF ratio” value worked out at 1.13.
With U8A G9A U10C C12G C13G the figure was 1.24; with U7A G9U C13A, 1.29; with U7A U10C C12U C13G, 1.09.
For U8G U10G U11A C12A the value was 1.18.
As to U7C U8A G9U U10A U11G C12U C13U, the “aptazyme ON/OFF ratio” value is 1.31.
With U7A U8C U10A C12U C13G the figure was 1.08; with U7G U8C G9U U10C U11A, 3.02.
With U10C C12G C13G the figure was 1.09.
For U7C U8G G9A U10C C12G the value was 1.23; for U7G U8A U11A C12U C13G, 1.26; for G9U U10C U11A C12G C13G, 1.43.
U7G G9A U10C U11A C13G: the “aptazyme ON/OFF ratio” value amounted to 1.09.
With G9U U10A U11C C12U the figure was 1.79; with U7A U8C G9A U10C U11C C12U C13U, 1.04.
Regarding U7A U8C G9A U10C U11C C12U C13G, the “aptazyme ON/OFF ratio” value was found to be 1.03.
With U7C U8C G9C U10G U11A C12G C13G the figure was 1.11; with U7G U8C G9A U10G U11C C12A C13G, 1.16.
For U8A U10C C13G the value was 1.05.
For U7C U8C G9A U11G C12U C13U the value was 1.35.
In the case of U8G G9U U11G C13G, the “aptazyme ON/OFF ratio” value came to 1.04.
With U7C U8G G9C U10G U11C C12U C13U, the “aptazyme ON/OFF ratio” value turned out to be 1.21.
For U11G C12U the value was 1.29; for U7G U8A U10C U11C C12A C13G, 1.16; for U7A U10A U11A C12A C13G, 1.14.
Turning to U7G U8G C12U C13U, the “aptazyme ON/OFF ratio” value turned out to be 1.5.
As for U7A U10G C12A C13G, the “aptazyme ON/OFF ratio” value worked out at 1.09.
Consider U7G U8C U10G U11C C12U C13A, for which the “aptazyme ON/OFF ratio” value came to 1.4.
For U7G U8C U10G U11C C12U C13G the value was 1.23; for U7A U8G G9U U10C C12A, 1.41; for U7G U8A G9U U11C C12U, 1.19.
Consider U7C U8G G9C U10C, for which the “aptazyme ON/OFF ratio” value is 3.58.
For U7C U8C G9U U10G the value was 1.42.
With U7C G9C U10C U11A C12G C13U the figure was 1.14.
For U7G U8A G9A U10C U11C C12G C13U the value was 1.08.
For U7G U8C G9C U10G U11C C13U, the “aptazyme ON/OFF ratio” value is 1.34.
For U7A U8A G9C U10C U11A C12U C13G the value was 1.1; for U7A U8G G9C U10G U11G C12U, 1.2.
With U7G U8C G9C U10C U11A C12U C13U the figure was 1.05; with U7G U8C G9C U11A C12U, 1.23.
For U7A U8C G9C U11C C12A C13G the value was 1.04.
On to U8A G9C U10C U11G C12G C13G, for which the “aptazyme ON/OFF ratio” value worked out at 1.12.
In the case of U7G G9U U10G U11A C12U C13A, the “aptazyme ON/OFF ratio” value was found to be 1.17.
For U7G U8C G9A U10G C13G the value was 1.19; for U8C G9A U10G C12U C13G, 1.2; for U7A U10G U11C C12G C13U, 1.34.
For U7G U8C G9A U11G C12G C13A the value was 1.07; for U7A U8C G9C U10C U11A C12A C13U, 1.03.
With U7C U8G U10C U11G C12A C13G the figure was 1.1; with U7C U8A G9C U10G U11G C12G, 1.13; with U7A U8G U10G U11A C12U C13A, 1.21.
As to U7A G9C U11G C12G C13A, the “aptazyme ON/OFF ratio” value is 1.16.
For U8C G9U U10A C13U the value was 1.37; for U7C G9C U10A U11C, 1.04; for U7G U8C G9U C12U, 4.27.
For U7C U8G U10A U11G C12G C13U the value was 1.36.
Turning to U7A U8A G9C U10G, the “aptazyme ON/OFF ratio” value was found to be 2.69.
For U7A U8A G9C U10A the value was 1.27.
On to U7C U8C G9C U11C C12G, for which the “aptazyme ON/OFF ratio” value was 1.24.
With U7G G9A U10A U11C C12A the figure was 1.24; with U7C U8G U10G U11A C12U C13A, 1.23; with U7C U8A G9U U10C C12A C13A, 1.13.
For U7C U8A G9A U10G C12U C13A the value was 1.26; for U7A G9C U10C C13U, 1.22; for U7A U8A G9U U11C C12G, 1.19.
For U7G U8C G9A U10A U11C C13G the value was 1.05.
Turning to U7A G9U U10G U11C C12U C13G, the “aptazyme ON/OFF ratio” value was 1.19.
With U7A U8C G9A U11G C13A the figure was 1.27; with U7C U8G U11G C12U C13U, 1.17.
For U7C U8A G9C U10A U11C C12G C13U the value was 1.36.
Consider U7C G9C U11C C13U, for which the “aptazyme ON/OFF ratio” value was determined as 1.
For U7A U10A U11A C12G C13G the value was 1.46; for U8C G9U U10A U11C C12U C13A, 1.19.
For U7G U8A G9A U10G U11G C12U C13U the value was 1.17.
For U7C U8G G9U U10C U11C C12G C13G the value was 1.08.
Regarding U7C G9A U10G U11A, the “aptazyme ON/OFF ratio” value is 1.06.
For U7G G9U C12G C13U the value was 1.36; for U7A U8G G9U U10C U11A C12A, 1.63.
With U7A U8A G9U U10C U11C the figure was 1.04; with U7G U8A G9C U10A U11G C12U C13A, 1.02; with U7G U8C G9U U11C C12U C13G, 1.05.
With U7G U8A G9C U10C C12A the figure was 1.02; with U8G G9U U10A U11G C12A C13U, 1.12; with U7G U8C G9A U10G U11G C12G, 1.27.
Regarding U7A U8G U10A U11A C12U C13G, the “aptazyme ON/OFF ratio” value is 1.25.
For G9C U10C U11A C12G the value was 1.14; for G9A U10C U11A C12G, 1.48.
Take U7G U8A G9C U11G C12A C13A: the “aptazyme ON/OFF ratio” value is 1.05.
With U7A U8C G9C U10A C13A the figure was 1.09; with U8A G9C U10G C12G, 1.17.
With G9A U10C U11G C12U C13G the figure was 1.43; with U7G U8G G9A U10G U11G C12A C13A, 1.1.
As for G9U U10C C12A C13A, the “aptazyme ON/OFF ratio” value came out at 1.39.
For the variant U7C U8G G9A U10C C12G C13A, the “aptazyme ON/OFF ratio” value stood at 1.13.
For G9U U10A U11G C13U the value was 1.72; for U7C U8A G9C U10C U11G C12U C13G, 1.11; for U7A G9C U10C U11G, 1.02.
For U7A U8C G9U U10A U11G C12U C13A the value was 1.17; for U7A U8C G9A U11G C12U C13G, 1.22.
With U7A G9C U10G U11C C12A the figure was 1.08.
